The target of one assay is T1, recombinant UBE2G2 (UniProt P60604 1-165).
T1 construct: UBE2G2, ubiquitin-conjugating enzyme E2 G2, recombinant; Called His-UBE2G2 only in the charging assays; no tag is named for the pull-downs; also called His-UBE2G2; source: bought: R&D Systems (E2-680-100)
T1 sequence: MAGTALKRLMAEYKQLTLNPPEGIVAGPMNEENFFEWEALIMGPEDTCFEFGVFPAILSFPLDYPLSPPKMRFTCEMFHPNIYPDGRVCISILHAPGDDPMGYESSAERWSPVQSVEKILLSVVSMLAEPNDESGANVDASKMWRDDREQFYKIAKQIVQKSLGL
The assay can be described thus: pull-down; MBP fusions of UBA1 fragments (5 ug) on beads, treated with AF 1.5 h and washed, then incubated with recombinant E2 2 h at room temperature in 150 mM NaCl, 10 mM Tris/HCl pH 7.4, 1 mM EDTA, 1 mM EGTA, 0.2% NP-40; immunoblot; in Fig. 2a also after iodoacetamide or with DTT. As to conditions: both partners purified. (In general: In western blotting, separated proteins are transferred to a membrane and probed.)

A further assay deals with T2, recombinant UBE2K (UniProt P61086 1-200).
T2 construct: UBE2K, ubiquitin-conjugating enzyme E2 K, recombinant; source: bought: R&D Systems (NBP2-35096)
T2 sequence (looked up): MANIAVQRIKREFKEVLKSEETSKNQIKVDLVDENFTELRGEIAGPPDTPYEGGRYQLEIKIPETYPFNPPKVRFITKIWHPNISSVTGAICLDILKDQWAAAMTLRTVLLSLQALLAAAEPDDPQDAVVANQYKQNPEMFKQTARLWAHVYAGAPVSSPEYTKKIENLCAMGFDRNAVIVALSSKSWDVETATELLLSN
The description is as above. As to conditions: both partners purified.

B1: MBP-UFD (C1039A) (domain or fragment)
chain: not shown
notes: UBA1 ubiquitin fold domain (UFD), aa942-1058, with C1039A; also called MBP-UFD with cysteine mutation; source: recombinant
For B1, the binding result with recombinant UBE2G2 is given as “binds”.

B2: MBP-UFD (C1040A) (domain or fragment)
chain: not shown
notes: UBA1 ubiquitin fold domain (UFD), aa942-1058, with C1040A; also called MBP-UFD with cysteine mutation; source: recombinant
In the case of B2, the binding result with recombinant UBE2G2 is reported as “binds”.

B3: MBP-UFD (942-1058) (domain or fragment)
chain: not shown
notes: UBA1 C-terminal ubiquitin fold domain (UFD), aa942-1058; The pull-down methods name the construct 'AAD-UFD'; also called UFD fragment of UBA1
In the case of B3, the binding result with recombinant UBE2K and in the assay with recombinant UBE2G2 was “binds” in each case.
